The source of these data is patent US20080171037A1, “Apo-3 ligand polypeptide” (Genentech, Inc., priority 1997, published 2008).

One test concerns MCF-7 cells. Description: Apoptosis by soluble Apo-3 Ligand in MCF-7 cells transfected with caspase inhibitors or FADD mutant. In kind it is cell-based, human. To be noted: CHX 1 hour, soluble Apo-3 Ligand 2 μg/ml 14 hours, FIG. 9D. On the procedure: MCF-7 cells were transfected by lipofection with empty vector (pRK5; EP 307,247) or with expression plasmid encoding the caspase inhibitors, p35 or CrmA, or a dominant-negative FADD mutant (Tularik, South San Francisco, Calif.). Sixteen hours later, the cells were pre-treated with CHX for 1 hour, and then treated for an additional 14 hours with soluble Apo-3 Ligand (2 μg/ml).

Test [1] relates to HeLa S3 cervical carcinoma cells. Description: Apoptosis in HeLa S3 cells (DNA fragmentation analysis). It counts as cell-based, human. The conditions noted are these: HeLa S3 cells pre-treated with CHX, FIG. 9C. On the procedure: HeLa S3 cervical carcinoma cells (ATCC CCL 2.2) were similarly pre-treated with CHX and then incubated with soluble Apo-3 Ligand (prepared as described in Example 3 above) alone or together with zVAD-fmk or DEVD-fmk (Research Biochemicals) (100 nM). The treated cells were then subjected to DNA fragmentation analysis.

Test [2] has as its system MCF-7 breast carcinoma cells. Description: Apoptosis in MCF-7 breast carcinoma cells (microscopy, Hoechst dye). It counts as cell-based, human. The conditions noted are these: MCF-7 cells pre-treated with CHX 10 μg/ml, ligand 2 μg/ml, 14 hours, FIG. 9A. On the procedure: Human MCF-7 breast carcinoma cells (ATCC HTB 22) were pre-treated for 1 hour with cyclohexamide (CHX) (10 μg/ml) and incubated for 14 hours with soluble Apo-3 Ligand (2 μg/ml; prepared as described in Example 3 above) alone or together with zVAD-fmk (Research Biochemicals) (100 nM). The cells were then stained with Hoechst dye and photographed by phase (FIG. 9A, left) and by fluorescence (FIG. 9A, right) microscopy. In FIG. 9A, arrowheads indicate some of the apoptotic cells (left) and their condensed nuclei (right).
In a separate experiment, the MCF-7 cells were pre-treated for 1 hour with buffer or CHX, incubated for an additional 14 hours with the indicated concentrations of soluble Apo-3 Ligand (see FIG. 9B), and apoptotic or live cells were score by microscopy.

Test [3] concerns NF-κB. Description: NF-κB activation, electrophoretic mobility shift assay, HeLa cells. It counts as cell-based, human. To be noted: FIG. 5A. On the procedure: In a first assay, HeLa cells (ATCC CCL 22) were treated with His-tagged soluble Apo-3 Ligand (described in Example 3) (10 μg/ml) in duplicate or with vehicle for 30 minutes. His-tagged Apo-2 ligand (see WO 97/25428) or TNF-alpha (Pennica et al., Nature, 312:724-729 (1984)) were assayed for comparison. Nuclear extracts were prepared and 1 μg of nuclear protein was reacted with a ^32P-labelled NF-κB-specific synthetic oligonucleotide probe
A general note: In EMSA bound probe runs differently from free probe, usually more slowly.

Test [4] has as its system Jun N-terminal kinase (JNK/SAPK). Description: JNK/SAPK activity in 293 cells transfected with full length Apo-3 Ligand. It counts as cell-based, human. The conditions noted are these: 293 cells transfected, FIG. 7. Here is the method: The pRK5 plasmid encoding Apo-3 Ligand polypeptide or empty pRK5 plasmid (see Example 6 above) was transiently transfected into human 293 cells (ATCC CCL 1573) by calcium phosphate precipitation. Four hours later, one set of cells was treated with z-VAD-fmk (Research Biochemicals) (200 μM). Twenty hours later, the cells were harvested and analyzed for activity of Jun N-terminal kinase (JNK; also called stress activated protein kinase or SAPK) using a commercially available JNK/SAPK assay kit (New England Biolabs), and according to the manufacturer's instructions.

The test system of test [5] is NF-κB. Description: NF-κB activation, electrophoretic mobility shift assay, 293 cells. To be noted: 3 hours, FIG. 5B and 5C. It counts as cell-based, human.
For a further test, the system named is HeLa cells. Description: Apoptosis in HeLa cells transfected with full length Apo-3 Ligand (FACS, annexin V binding). In kind it is cell-based, human. The conditions noted are these: HeLa cells transfected with plasmid encoding amino acids 1 to 249, CD4-positive cells, FIG. 6. On the procedure: A pRK5 plasmid (see EP 307,247) encoding Apo-3 Ligand polypeptide (amino acids 1 to 249 of FIG. 1), or empty pRK5 plasmid, was transiently transfected along with a pRK5 plasmid encoding human CD4 as a marker for transfection into human HeLa cells by electroporation, and the cells were plated in tissue culture dishes. Four hours later, the caspase inhibitor z-VAD-fmk (Research Biochemicals) (200 μM) was added to some of the dishes. Twenty hours later, apoptosis was determined by FACS analysis of cells positive for the CD4 marker by measuring binding of fluorescein isothiocyanate (FITC)-conjugated annexin V (Brand Applications) (see WO 97/25428).

The next test deals with T1, Apo-3 (Homo sapiens, UniProt Q93038).
T1 construct: made in house
T1 sequence (Q93038 25-199 limits assumed): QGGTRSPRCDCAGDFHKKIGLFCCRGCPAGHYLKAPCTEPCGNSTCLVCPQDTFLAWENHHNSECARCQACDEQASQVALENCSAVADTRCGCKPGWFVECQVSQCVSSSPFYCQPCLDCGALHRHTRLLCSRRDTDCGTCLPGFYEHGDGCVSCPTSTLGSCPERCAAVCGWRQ
Description: Co-immunoprecipitation binding assay with Flag-tagged soluble Apo-3. The conditions noted are these: ligand and receptor 1 μg/ml, FIG. 8A. Here is the method: A binding assay was conducted to determine if Apo-3 Ligand binds Apo-3 receptor. Apo-3 receptor was described by Marsters et al., Curr. Biol., 6:750 (1996). Other investigators have also referred to Apo-3 as DR3 [Chinnayian et al., Science, 274:990 (1996)], Wsl-1 [Kitson et al., Nature, 384:372 (1996)], TRAMP [Bodmer et al., Immunity, 6:79 (1997)], or LARD [Screaton et al., PNAS, 94:4615-4619 (1997)].
(§1) A Flag-epitope tagged soluble Apo-3 was produced (as described for DR5 in Sheridan et al., Science, 277:818 (1997)) and tested in a co-immunoprecipitation assay to examine its ability to associate with a histidine tagged soluble Apo-3 Ligand (see Example 3 above). […] The respective ligands (1 μg/ml) and receptors (1 μg/ml) were incubated for 1 hour at room temperature. The reaction mixtures were subjected to precipitation with anti-Flag antibody conjugated to sepharose beads (Kodak) (FIG. 8A, left) or nickel-sepharose (Qiagen) (FIG. 8A, right) by overnight incubation at 4° C. according to manufacturer's instructions and resolved by gel electrophoresis. The ligands were visualized by Western blot analysis with nickel-conjugated horseradish peroxidase. In FIG. 8A, molecular weight markers (kDa) are indicated on the left.

The target in the next test is T2, DR5 (Homo sapiens, UniProt O14763).
T2 construct: the ECD of the Apo-2L receptor, DR5; made in house
Description: Co-immunoprecipitation binding assay with DR5 ECD. The conditions noted are these: ligand and receptor 1 μg/ml, FIG. 8A. Here is the method:
as §1

“Also recorded” adds a separate entry of the source.

T2 sequence (O14763 56-184 limits assumed): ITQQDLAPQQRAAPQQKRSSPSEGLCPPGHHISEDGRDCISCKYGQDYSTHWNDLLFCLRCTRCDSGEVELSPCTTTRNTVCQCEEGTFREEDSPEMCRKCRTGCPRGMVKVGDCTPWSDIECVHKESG

B1: p35: virus-derived caspase inhibitor, expressed from a transfected plasmid (protein, UniProt P08160 1-299, looked up)
Early 35 kDa protein: MCVIFPVEIDVSQTIIRDCQVDKQTRELVYINKIMNTQLTKPVLMMFNISGPIRSVTRKNNNLRDRIKSKVDEQFDQLERDYSDQMDGFHDSIKYFKDEHYSVSCQNGSVLKSKFAKILKSHDYTDKKSIEAYEKYCLPKLVDERNDYYVAVCVLKPGFENGSNQVLSFEYNPIGNKVIVPFAHEINDTGLYEYDVVAYVDSVQFDGEQFEEFVQSLILPSSFKNSEKVLYYNEASKNKSMIYKALEFTTESSWGKSEKYNWKIFCNGFIYDKKSKVLYVKLHNVTSALNKNVILNTIK
For B1, the “effect of transfection on induction of apoptosis by Apo-3 Ligand” value in the test with MCF-7 cells was “blocked induction of apoptosis”.

B2: soluble Apo-3 Ligand (protein)
chain: MGHHHHHHHHHHSSGHIDDDDKHMRASLSAQEPAQEELVAEEDQDPSELNPQTEESQDPAPFLNRLVRPRRSAPKGRKTRARRAIAAHYEVHPRPGQDGAQAGVDGTVSGWEEARINSSSPLRYNRQIGEFIVTRAGLYYLYCQVHFDEGKAVYLKLDLLVDGVLALRCLEEFSATAASSLGPQLRLCQVSGLLALRPGSSLRIRTLPWAHLKAAPFLTYFGLFQVH
Consider B2, for which, in test [1], the “apoptosis (internucleosomal DNA fragmentation)” value is listed as “induced marked apoptosis”. In addition, in [2], the “apoptosis (morphological changes and chromatin condensation)” value was “induced marked apoptosis”. Moreover, the NF-κB activation entry with NF-κB [3] (10 μg/ml, 30 minutes) is on record as “induced significant NF-κB activation”. For the same molecule, in the test with NF-κB [3], the “level of NF-κB activation compared with Apo-2 ligand” value is reported as “comparable” and the “level of NF-κB activation compared with TNF-alpha” value is “weaker”.

B3: Apo-3 Ligand: Novel human TNF family polypeptide of 249 amino acids encoded by clone DNA30879-1152 (ATCC 209358) (protein)
chain: MGHHHHHHHHHHSSGHIDDDDKHMRASLSAQEPAQEELVAEEDQDPSELNPQTEESQDPAPFLNRLVRPRRSAPKGRKTRARRAIAAHYEVHPRPGQDGAQAGVDGTVSGWEEARINSSSPLRYNRQIGEFIVTRAGLYYLYCQVHFDEGKAVYLKLDLLVDGVLALRCLEEFSATAASSLGPQLRLCQVSGLLALRPGSSLRIRTLPWAHLKAAPFLTYFGLFQVH
Regarding B3, the “level of JNK/SAPK activity compared with pRK5 control” value in test [4] is reported as “detectable increase; also recorded: increased JNK/SAPK activity”. Besides, the NF-κB activation result with NF-κB [5] is listed as “NF-κB activation”. Moreover, in the test on HeLa cells, the “level of apoptosis compared with pRK5 (control)” value is on record as “about a doubling of the level of apoptosis”. In addition, the “binding to Apo-3” value with Apo-3 is “bound to Apo-3”; with Apo-3 (listed as Apo-3L), “specifically binds to Apo-3”. For the same molecule, in test [2], the “apoptosis (morphological changes and chromatin condensation)” value is on record as “induced apoptosis”. Besides, the “binding to DR5” value in the test with DR5 is “not to DR5”.
